{"source": "patent US20110230406A1", "about": "(ADVANCED TECHNOLOGIES AND REGENERATIVE MEDICINE, published 2011)", "key": {"[1]": {"target": "T1, biotinylated BMP-2 (R&D Systems, Item number 355-BM/CF) (human, UniProt P12643 283-396, biotinylated (sites not given))", "T1 construct": "Bought protein, biotinylated, captured on streptavidin plates (phage ELISA) or streptavidin donor beads (ALPHA); also called bone morphogenic protein-2", "T1 sequence (P12643 283-396 limits assumed)": "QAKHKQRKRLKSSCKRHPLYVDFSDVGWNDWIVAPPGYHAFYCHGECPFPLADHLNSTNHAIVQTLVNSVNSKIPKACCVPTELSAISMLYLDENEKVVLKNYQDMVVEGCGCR", "test": "ALPHA, biotinylated BMP-2 at 0.825 micrograms/mL, Ni-acceptor and streptavidin-donor beads", "method": "Diluted stock of biotinylated BMP-2 (R&D Systems, Minneapolis, Minn., Item number 355-BM/CF) at 3.3 micrograms/ml was prepared in 2× assay buffer (PBS, 0.01% Tween-80, 0.05% BSA). Chemically synthesized peptides having SEQ ID NO: 1, SEQ ID NO: 2, SEQ ID NO: 3, and SEQ ID NO: 6 were prepared using standard, automated Fluorenylmethyloxycarbonyl (Fmoc) solid phase peptide synthesis procedures. Each peptide solution for the assay was prepared from a 100 microgram/mL stock solution. The stock solution was serially diluted in ½ log steps in assay buffer resulting in peptide concentrations of 100, 33.3, 11.1, 3.70, 1.23, 0.41, 0.14, 0.046, 0.015, 0.0051, 0.0017 and 0.00056 micrograms/mL. Subsequently, serially diluted peptides were added to the corresponding wells containing the 10 microliters of the 3.3 microgram/mL solution of biotinylated BMP-2. Final assay test concentration for biotinylated BMP-2 was 0.825 micrograms/mL. Final peptide concentrations were 25, 8.3, 2.8, 0.93, 0.31, 0.10, 0.03, 0.01, 0.003, 0.001, 0.0003 and 0.0001 micrograms/mL. Next, Nickel (Ni)-acceptor and streptavidin (SA)-donor beads (Perkin Elmer, Waltham, Mass., Item number 6760619M) were diluted 1:100 in assay buffer prior to adding 20 microliters to each test well. […] The emission of the plate was read using a dual wavelength fluorometer (Perkin Elmer (Waltham, Mass.) Envision 2101 Multilabel Reader)."}, "[2]": {"target": "T1, biotinylated BMP-2 (R&D Systems, Item …)", "test": "mutant phage ELISA titration on BMP-2 by the procedure of Example 3", "method": "To all other wells, 100 microliters of PBS was introduced. The plates were again washed 3 times with TBST using the plate washer. The wells were then blocked with 250 microliters of a 3% dehydrated milk suspension in TBST and allowed to sit at room temperature for a minimum of 1 hour. Using phage concentrations determined by the phage titrations, dilutions of the phage stock solutions were performed in a separate 96-well plate to result in phage concentrations of 10¹⁰, 10⁹, 10⁸, 10⁷, 10⁶ and 10⁵ phage/well. After blocking, the ELISA plate was washed 3 times with TBST and 100 microliters of the phage dilutions were introduced to the respective ELISA plates and allowed to sit at room temperature for a minimum of 1 hour. The ELISA plate was again washed 3 times with TBST using the plate washer and 100 microliters of an HRP-conjugated Anti-M13 Phage Mab (1:5000 dilution in PBS) was introduced to each well. The plates were allowed to sit at room temperature for 1 hour after which time the plates were washed 3 times with TBST. Next, a POD HRP-substrate was introduced to each well. The luminescence was read using a luminometer set with a gain of 150.\nThe respective custom oligonucleotide was obtained from Integrated DNA Technologies. The oligonucletides were inserted into the pIX gene using standard protocols. First, the oligonucletides were phosphorylated using T4 polynucleotide kinase. Next, the phosphorylated oligonucletides were annealed to the ssDNA template. Using the Kunkel method, the annealed DNA was ligated using T4 DNA ligase and T7 DNA polymerase. The resultant DNA was isolated using isopropanol precipitation and a gel was run to confirm the reaction. Lastly, electro-competent E. coli cells were transformed with the purified DNA and were plated out onto 2xYT/Tet/Xgal agar plates and allowed to grow overnight to isolate single colonies. An aliquot of the transformed cells was allowed to grow overnight at 37° C. while shaking in 50 mL 2xYT/tet media. The phage were then PEG precipitated following the procedure in Example 1. A phage titration was performed to determine the concentration of phage for the ELISA assay as described in Example 2. ELISA assays were performed following the procedure in Example 3."}, "[3]": {"target": "T2, rhBMP-2 (R&D Systems, Item number 355-BM/CF) (human, UniProt P12643 283-396)", "T2 construct": "Coupled to a CM4 chip by EDC/NHS in SPR; also called human recombinant BMP-2", "T2 sequence (P12643 283-396 limits assumed)": "as above", "test": "SPR (Biacore S51), rhBMP-2 on CM4 chip, peptide at 5 micromolar, 1:1 Langmuir fit, N=3", "method": "Peptide binding affinity to BMP-2 was evaluated for SEQ ID NO: 3 and SEQ ID NO: 6 by surface plasmon resonance measurements. Measurements were performed on a Biacore S51 (Biacore Life Sciences, Piscataway, N.J.) instrument using a CM4 Series-S sensor chip. rhBMP-2 (R&D Systems, Minneapolis, Minn., Item number 355-BM/CF) was immobilized on the sensor chip using 1-ethyl-3[3-dimethylaminopropyl]carbodiimide hydrochloride (EDC)/N-hydroxysuccinimide (NHS) coupling chemistry. […] Data were fit to a 1:1 Langmuir binding model using Biacore Analysis Software (Biacore Life Sciences, Piscataway, N.J.).\nThe data shown in Table 2 are average equilibrium dissociation constants with an N value of 3."}, "human IgG": {"target": "T3, human IgG (human)", "T3 construct": "Cross-reactivity control coated at 5 micrograms/mL; also called hIgG", "test": "phage ELISA titration, hIgG-coated wells, HRP anti-M13 antibody, luminescence", "method": "(§1) 96-well black ELISA plates were coated with streptavidin (Rows A through D), hIgG (Rows E and F) and human serum albumin (Rows G and H), at a concentration of 5 micrograms/mL in PBS. Plates were incubated overnight at 4° C. Plates were washed 3 times with TBST using a plate washer. To the streptavidin-coated wells in rows C and D, 100 microliters of a 4 micrograms/mL solution of biotinylated-BMP-2 (R&D Systems, Minneapolis, Minn., Item number 355-BM/CF), was introduced and allowed to sit at room temperature for 30 minutes. To all other wells, 100 microliters of PBS was introduced. The plates were again washed 3 times with TBST using the plate washer. The wells were then blocked with 250 microliters of a 3% dehydrated milk suspension in TBST and allowed to sit at room temperature for a minimum of 1 hour. Using phage concentrations determined by the phage titrations, dilutions of the phage stock solutions were performed in a separate 96-well plate to result in phage concentrations of 10¹⁰, 10⁹, 10⁸, 10⁷, 10⁶ and 10⁵ phage/well. After blocking, the ELISA plate was washed 3 times with TBST and 100 microliters of the phage dilutions were introduced to the respective ELISA plates and allowed to sit at room temperature for a minimum of 1 hour. […] The luminescence was read using a luminometer set with a gain of 150."}, "human serum albumin [4]": {"target": "T4, human serum albumin (human, UniProt P02768 25-609)", "T4 construct": "Cross-reactivity control coated at 5 micrograms/mL; also called HSA", "test": "phage ELISA titration, HSA-coated wells, HRP anti-M13 antibody, luminescence", "method": "as §1"}, "[5]": {"target": "T1, biotinylated BMP-2 (R&D Systems, Item …)", "test": "phage ELISA titration, biotinylated BMP-2 captured on streptavidin-coated wells, HRP anti-M13 antibody, luminescence", "method": "(§2) 96-well black ELISA plates were coated with streptavidin (Rows A through D), hIgG (Rows E and F) and human serum albumin (Rows G and H), at a concentration of 5 micrograms/mL in PBS. Plates were incubated overnight at 4° C. Plates were washed 3 times with TBST using a plate washer. To the streptavidin-coated wells in rows C and D, 100 microliters of a 4 micrograms/mL solution of biotinylated-BMP-2 (R&D Systems, Minneapolis, Minn., Item number 355-BM/CF), was introduced and allowed to sit at room temperature for 30 minutes. To all other wells, 100 microliters of PBS was introduced. The plates were again washed 3 times with TBST using the plate washer. The wells were then blocked with 250 microliters of a 3% dehydrated milk suspension in TBST and allowed to sit at room temperature for a minimum of 1 hour. Using phage concentrations determined by the phage titrations, dilutions of the phage stock solutions were performed in a separate 96-well plate to result in phage concentrations of 10¹⁰, 10⁹, 10⁸, 10⁷, 10⁶ and 10⁵ phage/well. After blocking, the ELISA plate was washed 3 times with TBST and 100 microliters of the phage dilutions were introduced to the respective ELISA plates and allowed to sit at room temperature for a minimum of 1 hour. The ELISA plate was again washed 3 times with TBST using the plate washer and 100 microliters of an HRP-conjugated Anti-M13 Phage Mab (1:5000 dilution in PBS) was introduced to each well. The plates were allowed to sit at room temperature for 1 hour after which time the plates were washed 3 times with TBST. Next, a POD HRP-substrate was introduced to each well. The luminescence was read using a luminometer set with a gain of 150."}, "human serum albumin [6]": {"target": "T4, human serum albumin", "test": "phage ELISA, HSA-coated wells, HRP anti-M13 antibody, luminescence", "method": "as §2"}, "Streptavidin": {"target": "Streptavidin", "test": "phage ELISA titration, streptavidin-coated wells without BMP-2, HRP anti-M13 antibody, luminescence", "method": "as §1"}}, "note": "No end group written: not given here.", "data": [{"binder": "AGLPLQSMSRLSYDSLS (Fmoc solid phase synthesis)", "note": "[chemically synthesized peptide having SEQ ID NO: 1]", "values": [{"measurement": "binding result", "setting": "[1]", "value": "binds"}]}, {"binder": "AGRDSFNLLTSSSSPST", "note": "[SEQ ID NO: 31]", "values": [{"measurement": "binding result", "setting": "[2]", "value": "binds"}]}, {"binder": "AGYTSFALLKSAESTLP (Fmoc solid phase synthesis; used in ALPHA and SPR)", "note": "[chemically synthesized peptide having SEQ ID NO: 3]", "values": [{"measurement": "Kd", "setting": "[3]", "value": 398, "unit": "nM"}]}, {"binder": "AGFRWWHTQPAHTLSYT (also: displayed on phage pIX minor coat protein, junction not given here, not shown: pIX minor coat protein of the phage that carries the peptide)", "note": "[phage displaying the peptide of SEQ ID NO: 4 on the pIX minor coat protein]", "values": [{"measurement": "EC50 (read off the curve)", "setting": "human IgG", "value": "~1e+08", "unit": "phage/well"}, {"measurement": "binding result", "setting": "human serum albumin [4]", "value": "binds"}, {"measurement": "binding result", "setting": "[5]", "value": "binds"}]}, {"binder": "AGYTSFALSSSAESTLP", "note": "[SEQ ID NO: 26]", "values": [{"measurement": "binding result", "setting": "[2]", "value": "no binding (tested: 1.00E+10 phage/well)"}]}, {"binder": "AGRDSFNLLTSSPLSSS", "note": "[SEQ ID NO: 32]", "values": [{"measurement": "binding result", "setting": "[2]", "value": "binds"}]}, {"binder": "AGRDSFNLLTSSPLPST (Fmoc solid phase synthesis; used in ALPHA, SPR and the alkaline phosphatase assay)", "note": "[chemically synthesized peptide having SEQ ID NO: 6]", "values": [{"measurement": "Kd", "setting": "[3]", "value": 303, "unit": "nM"}]}, {"binder": "AGRDSFNLSSSSPLPST", "note": "[SEQ ID NO: 30]", "values": [{"measurement": "binding result", "setting": "[2]", "value": "no binding (tested: 1.00E+10 phage/well)"}]}, {"binder": "AGYTSFALLKSAESTLP (also: displayed on phage pIX coat protein fusion, not shown: pIX minor coat protein of the phage that carries the peptide)", "note": "[phage displaying the peptide of SEQ ID NO: 3 on the pIX minor coat protein]", "values": [{"measurement": "binding result", "setting": "human serum albumin [6]", "value": "no binding (tested: 10^9 phage/mL)"}, {"measurement": "EC50 (read off the curve)", "setting": "[5]", "value": "~1e+08", "unit": "phage/well"}, {"measurement": "binding result", "setting": "Streptavidin", "value": "no binding (tested: 1.00E+10 phage/well)"}]}, {"binder": "AGPPGPYIAASAFLALK (Fmoc solid phase synthesis)", "note": "[chemically synthesized peptide having SEQ ID NO: 2]", "values": [{"measurement": "binding result", "setting": "[1]", "value": "binds"}]}, {"binder": "AGYRCSELPLYCST (cysteine pairing not given here; also: displayed on phage pIX minor coat protein, not shown: pIX minor coat protein of the phage that carries the peptide)", "note": "[phage displaying the peptide of SEQ ID NO: 7 on the pIX minor coat protein]", "values": [{"measurement": "binding result", "setting": "[5]", "value": "binds"}]}]}
